Laboratory results published in patent US20140274782A1 (Stanford University, published 2014).

How the values were obtained:
[1] = molecular target: cDNA clone IMAGE:4623222 product, G9a-methylated (human); test: ProtoArray, G9a array SNR minus GST array SNR
Protocol: (§1) Briefly, a ProtoArray (Invitrogen, version 5.0) was incubated overnight with 50 μg of GST or recombinant GSTtagged G9a SET domain and the cofactor SAM.
(§2) Arrays were analyzed using GenePix Pro 6.1 software (Molecular Devices) and feature values were assigned to proteins using the array list provided by Invitrogen. We designated the following criteria for “hits”: GST array signal-to-noise ratio (SNR) less than or equal to 1.5, G9a array SNR greater than or equal to 10, and a difference between the G9a array SNR and the GST array SNR of greater than or equal to 12. Hits were individually visually validated. Proteins were removed from the list of potential substrates if irregular array features appeared to interfere with the array spots or SNR calculations.
(§3) Protein arrays bearing almost 9500 recombinant human proteins were methylated using GST-tagged recombinant G9a SET domain or GST alone as a control as shown in FIG. 4. […] Results were filtered for proteins scoring a GST array signal-to-noise ratio (SNR) less than or equal to 1.5, a G9a array SNR greater to or equal to 10, and a difference between the G9a and GST SNRs of greater than or equal to 12. Subsequent proteins were individually inspected for irregular array features.

MGC4473, G9a-methylated = MGC4473, G9a-methylated (human); test: ProtoArray, G9a array SNR minus GST array SNR
Protocol: as §1, §2, §3

B1: 3× Flag-3×MBT (designed binder)
chain: EEWSSSQPATGEKKECWSWESYLEEQKAITAPVSLFQDSQAVTHNKNGFKLGMKLEGIDPQHPSMYFILTVAEVCGYRLRLHFDGYSECHDFWVNANSPDIHPAGWFEKTGHKLQPPKGYKEEEFSWSQYLRSTRAQAAPKHLFVSQSHSPPPLGFQVGMKLEAVDRMNPSLVCVASVTDVVDSRFLVHFDNWDDTYDYWCDPSSPYIHPVGWCQKQGKPLTPPQDYPDPDNFCWEKYLEETGASAVPTWAFKVRPPHSFLVNMKLEAVDRRNPALIRVASVEDVEDHRIKIHFDGWSHGYDFWIDADHPDIHPAGWCSKTGHPLQPPLGPREPSSASPGG
notes: also called Flag-tagged 3×MBT; 3xFlag-3xMBT; not shown: made by PreScission cleavage of GST-3× Flag-3×MBT
[1]
  G9a-GST: 17.8
MGC4473, G9a-methylated
  G9a-GST: 21.7
